Assay results: patent US20240368249A1 (INTERVET, published 2024)

T1: canine IL-13 (canine, UniProt Q9N0W9 19-131, limits assumed, biotin-labeled in the OCTET assay)
T1 construct: also called cIL-13; canine Interleukin-13
T1 sequence (looked up): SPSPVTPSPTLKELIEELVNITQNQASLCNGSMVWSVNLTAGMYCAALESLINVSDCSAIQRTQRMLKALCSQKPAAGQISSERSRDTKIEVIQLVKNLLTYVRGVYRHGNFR


What was measured:
canine IL-13 = molecular target: T1, canine IL-13; experiment: BLI (OCTET HTX), biotin-cIL-13 on SA biosensors
Description: The binding constants for the cFc fusion proteins provided in Tables 3 and 4 below, were determined using OCTET® HTX. All kinetics measurements were performed by OCTET® HTX using SA® biosensors and DATA ACQUISITION® 12.0 software. 10 μg/mL of biotin-labeled antigen, either canine IL-4 (cIL-4) or canine IL-13 (cIL-13) were loaded onto the SA® biosensors for 120 seconds. Next, the biosensors were placed into 1×pH 7.0 TBS/Casein buffer for 60 seconds for the blocking phase. For the association phase, antigen loaded biosensors were placed into 2-fold serial dilutions from 1 μM down to 15.6 nM of the wild-type, the bispecific, or the FcRn-mutant receptor Fc-fusions that recognized the cIL-4 or cIL-13 antigen in 1×pH 7.0 TBS/Casein buffer for 30 seconds. The last well was buffer alone and that sensor was used for reference sensor subtraction. Finally, the biosensors were placed into 1×pH 7.0 TBS/Casein buffer for 120 seconds for the dissociation phase. The results were then analyzed using Data Analysis 12.0 software and the curves were fitted using a 1:1 binding model.

canine IL-31Rα (canine) [1] = experiment: ELISA, plate coated with cIL-31Rα at 1 µg/mL, detection with HRP anti-dog IgG Fc, OD450/540
canine IL-31Rα (canine) [2] = experiment: ELISA, plate coated with cIL-31Rα at 1 µg/mL, detection with HRP anti-dog IgG Fc, OD450/540nm

Binder	EC50 (canine IL-31Rα (canine) [1])	further results
cIL-13Rα2-cIgGB-Fc-YD CH2 Numbering (L18Y/T22D) (Fc fusion, Homodimer; also called cIL-13Rα2-cFc-YD) SMLSNAEIKVNPPQDFEIVDPGYLGYLSLQWQPPLFPDNFKECTIEYELKYRNIDSENWKTIITKNLHYKDGFDLNKGIEAKINTLLPAQCTNGSEVRSSWAETTYWTSPQGNRETKIQDMDCVYYNWQYLVCSWKPGMGVHFDTNYQLFYWYEGLDHSAECTDYIKVNGKNMGCRFPYLESSDYKDFYICVNGSSESQPIRPSYFIFQLQNIVKPMPPDYLSLTVKNSEEINLKWNMPKGPIPAKCFIYEIEFTEDGTTWVTTTVENEIQITRTSNESQKLCFLVRSKVNIYCSDDGIWSEWSDEQCWKGDIWKETPKRENGRVPRPPDCPKCPAPEMLGGPSVFIFPPKPKDTLYIARDPEVTCVVVDLDPEDPEVQISWFVDGKQMQTAKTQPREEQFNGTYRVVSVLPIGHQDWLKGKQFTCKVNNKALPSPIERTISKARGQAHQPSVYVLPPSREELSKNTVSLTCLIKDFFPPDIDVEWQSNGQQEPESKYRTTPPQLDEDGSYFLYSKLSVDKSRWQRGDTFICAVMHEALHNHYTQESLSHSPGK		factor of decrease of KD against the unmodified cIL-13Rα2-cFc (canine IL-13): ~2 fold lower KD
cIL-13Rα2-cIgGB-Fc-YTE CH2 Numbering (L18Y/A20T/T22E) (Fc fusion, Homodimer; also called cIL-13Rα2-cFc-YTE) SMLSNAEIKVNPPQDFEIVDPGYLGYLSLQWQPPLFPDNFKECTIEYELKYRNIDSENWKTIITKNLHYKDGFDLNKGIEAKINTLLPAQCTNGSEVRSSWAETTYWTSPQGNRETKIQDMDCVYYNWQYLVCSWKPGMGVHFDTNYQLFYWYEGLDHSAECTDYIKVNGKNMGCRFPYLESSDYKDFYICVNGSSESQPIRPSYFIFQLQNIVKPMPPDYLSLTVKNSEEINLKWNMPKGPIPAKCFIYEIEFTEDGTTWVTTTVENEIQITRTSNESQKLCFLVRSKVNIYCSDDGIWSEWSDEQCWKGDIWKETPKRENGRVPRPPDCPKCPAPEMLGGPSVFIFPPKPKDTLYITREPEVTCVVVDLDPEDPEVQISWFVDGKQMQTAKTQPREEQFNGTYRVVSVLPIGHQDWLKGKQFTCKVNNKALPSPIERTISKARGQAHQPSVYVLPPSREELSKNTVSLTCLIKDFFPPDIDVEWQSNGQQEPESKYRTTPPQLDEDGSYFLYSKLSVDKSRWQRGDTFICAVMHEALHNHYTQESLSHSPGK		factor of decrease of KD against the unmodified cIL-13Rα2-cFc (canine IL-13): ~2 fold lower KD
Chimeric rat/canine 44E2 (antibody, V domains shown) VH: QVQLKESGPGLVQPSQTLSLTCTVSGFSLTSNGVSWVRQPPGKGLEWIAAISSGGSTYYNSVLKSRLSISRDTSKSQVFLKMNSLQTEDTAIYFCTRRLSGYNYVPFAYWGQGTLVTVSS VL: DIQMTQSPSLLSASVGDRVTLNCKASQNIYKHLAWCQQKLGEPPNLLISNANSLQTGIPSRFSGSGSGTDFTLTISSLQPEDVATYFCQQYYSGDTFGAGTKLELKR	1.37 ng/mL	
Caninized 44E2 H5k1 (antibody, V domains shown) VH: ELTLQESGPGLVKPSQTLSLTCTVSGFSLTSNGVSWIRQRPGRGLEWMGAISSGGSTYYNSVLKSRISITADTAKNQFSLQLSSMTTEDTAVYYCARRLSGYNYVPFAYWGQGTLVTVSS VL: EIVMTQSPASLSLSQEEKVTITCKASQNIYKHLAWYQQKPGQAPKLLIYNANSLQTGVPSRFSGSGSGTDFSFTISSLEPEDVAVYYCQQYYSGDTFGAGTKVELKR	1.35 ng/mL	
Caninized 44E2 H5k2 (antibody, V domains shown) VH: ELTLQESGPGLVKPSQTLSLTCTVSGFSLTSNGVSWIRQRPGRGLEWMGAISSGGSTYYNSVLKSRISITADTAKNQFSLQLSSMTTEDTAVYYCARRLSGYNYVPFAYWGQGTLVTVSS VL: EIVMTQSPASLSLSQEEKVTITCKASQNIYKHLAWYQQKPGQAPKLLIYNANSLQTGIPSRFSGSGSGTDFSFTISSLEPEDVAVYFCQQYYSGDTFGAGTKVELKR	3.97 ng/mL	
Chimeric rat/canine 10A12 (antibody, V domains shown) VH: EVQLVESGGGLVKPGRSMKLSCAASGFTFSNYYMAWVRQAPTKGLEWVASISTGGGNTYYRDSVKGRFTISRDNAKRTLYLQMDSLRSEDTATYYCGRHGTLYFDYWGQGVMVTVSS VL: QFTLTQPKSVSGSLRSTITIPCERSSGDIGDSYVSWYQQHLGRPPINVIYVDDQRPSEVSDRFSGSIDSSSNSASLTITDLQMDDEADYFCQSYDSNIDGPVFGGGTKLTVLG		EC50 (canine IL-31Rα (canine) [2]): 0.518 ng/mL
cIL-13Rα1-cIgGB-Fc-YTE CH2 Numbering (L18Y/A20T/T22E) (Fc fusion, Homodimer; also called cIL-13Rα1-cFc-YTE) GGVAAPTETQPPVTNLSVSVENLCTVIWTWDPPEGASPNCTLRYFSHFDNKQDKKIAPETHRSKEVPLNERICLQVGSQCSTNESDNPSILVEKCTPPPEGDPESAVTELQCVWHNLSYMKCTWLPGRNTSPDTNYTLYYWHSSLGKILQCEDIYREGQHIGCSFALTNLKDSSFEQHSVQIVVKDNAGKIRPSFNIVPLTSHVKPDPPHIKRLFFQNGNLYVQWKNPQNFYSRCLSYQVEVNNSQTETNDIFYVEEAKCQNSEFEGNLEGTICFMVPGVLPDTLNTVRIRVRTNKLCYEDDKLWSNWSQAMSIGENTDPTPKRENGRVPRPPDCPKCPAPEMLGGPSVFIFPPKPKDTLYITREPEVTCVVVDLDPEDPEVQISWFVDGKQMQTAKTQPREEQFNGTYRVVSVLPIGHQDWLKGKQFTCKVNNKALPSPIERTISKARGQAHQPSVYVLPPSREELSKNTVSLTCLIKDFFPPDIDVEWQSNGQQEPESKYRTTPPQLDEDGSYFLYSKLSVDKSRWQRGDTFICAVMHEALHNHYTQESLSHSPGK		fold decrease in affinity against the unmodified cIL-13Rα1-cFc (canine IL-13): ~4 fold decrease
Chimeric rat/canine 28F12 (antibody, V domains shown) VH: EVQLVESDGGLAQPGRSLKLSCAASGFTFSDYYMAWVRQAPTKGLEWVATISYDGSSTYYRDSVRGRFTISRDNAKSTLYLQMDSLRSEDTATYYCARGPLTDWAPNWFAYWGQGTLVTVSS VL: DIQMTQSPASLSASLGETVTIQCQTSEDIYSGLAWYQQKPGKSPQFLIYGASRLEDGVPSRFSGSGSGTQYSLKISSMQTEDEGVYFCQQGLKYPNTFGAGTKLELKR	1.66 ng/mL	EC50 (read off the curve) (canine IL-31Rα (canine) [1]): 1 ng/mL
Caninized 10A12 H1L5 (antibody, V domains shown) VH: EVQLVESGGDLVKPGGSLRLSCVASGFTFSNYYMAWVRQAPGKGLQWVASISTGGGNTYYRDSVKGRFTISRDNAKNTLYLQMNSLRAEDTAMYYCAKHGTLYFDYWGQGTLVTVSS VL: QPVLTQPPSLSASLGTTARLTCERSSGDIGDSYVSWYQQKPGSPPRDLLYVDDQRPSGVSKSFSGSKDTSANAGLLLISGLQPEDEADYYCQSYDSNIDGPVFGGGTHLTVLG		EC50 (canine IL-31Rα (canine) [2]): 13.5 ng/mL
Caninized 10A12 H2L6 (antibody, V domains shown) VH: EVQLVESGGDLVKPGGSLRLSCAASGFTFSNYYMAWVRQAPGKGLQWVASISTGGGNTYYRDSVKGRFTISRDNAKNTLYLQMNSLRAEDTAMYYCARHGTLYFDYWGQGTLVTVSS VL: QPVLTQPPSLSASLGTTARLTCERSSGDIGDSYVSWYQQKPGSPPRDVIYVDDQRPSEVSKSFSGSKDTSANAGLLLISGLQPEDEADYFCQSYDSNIDGPVFGGGTHLTVLG		EC50 (canine IL-31Rα (canine) [2]): 0.34 ng/mL
Caninized 28F12 H1k3 (antibody, V domains shown) VH: EVQLVESGGDLVKPGGSLRLSCVASGFTFSDYYMAWVRQAPGKGLQWVATISYDGSSTYYRDSVRGRFTISRDNAKNTLYLQMNSLRAEDTAMYYCAKGPLTDWAPNWFAYWGQGTLVTVSS VL: DIVMTQSPASLSLSQEEKVTITCQTSEDIYSGLAWYQQKPGQAPKLLIYGASRLEDGVPSRFSGSGSGTDFSFTISSLEPEDVAVYFCQQGLKYPNTFGAGTKVELKR	1.74 ng/mL	
Caninized 28F12 H2k3 (antibody, V domains shown) VH: EVQLVESGGDLVKPGGSLRLSCAASGFTFSDYYMAWVRQAPGKGLQWVATISYDGSSTYYRDSVRGRFTISRDNAKNTLYLQMNSLRAEDTAMYYCARGPLTDWAPNWFAYWGQGTLVTVSS VL: DIVMTQSPASLSLSQEEKVTITCQTSEDIYSGLAWYQQKPGQAPKLLIYGASRLEDGVPSRFSGSGSGTDFSFTISSLEPEDVAVYFCQQGLKYPNTFGAGTKVELKR	1.74 ng/mL	
Caninized 28F12 H2k2 (antibody, V domains shown) VH: EVQLVESGGDLVKPGGSLRLSCAASGFTFSDYYMAWVRQAPGKGLQWVATISYDGSSTYYRDSVRGRFTISRDNAKNTLYLQMNSLRAEDTAMYYCARGPLTDWAPNWFAYWGQGTLVTVSS VL: EIVMTQSPASLSLSQEEKVTITCQTSEDIYSGLAWYQQKPGQAPKLLIYGASRLEDGVPSRFSGSGSGTDFSFTISSLEPEDVAVYYCQQGLKYPNTFGAGTKVELKR	1.74 ng/mL	
